We go through 3 molecules from US6307026, “Humanized antibodies directed against A33 antigen” (Celltech Limited, dated 2001).

Assay [1] deals with T1, A33 antigen (human, UniProt Q99795).
T1 sequence: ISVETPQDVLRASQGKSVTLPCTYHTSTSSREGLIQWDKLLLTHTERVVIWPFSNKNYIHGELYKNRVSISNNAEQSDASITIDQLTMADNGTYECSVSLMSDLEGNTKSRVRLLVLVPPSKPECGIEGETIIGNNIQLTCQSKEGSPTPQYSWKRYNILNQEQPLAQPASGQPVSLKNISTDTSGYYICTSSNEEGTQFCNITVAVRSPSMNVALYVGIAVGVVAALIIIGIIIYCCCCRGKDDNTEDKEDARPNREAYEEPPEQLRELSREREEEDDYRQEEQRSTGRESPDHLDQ
In words: direct binding to ASPC-1 cells, FITC labelled anti-human IgG, FACScan. On the procedure:
In the direct binding assay ASPC-1 or Colo205 cells were incubated at […] for 1 h. in the presence of various amounts of murine, chimeric or humanised A33, or non-specific antibody controls.
To confirm that the sequences obtained could combine to bind to the A33 antigen the chimeric expression plasmids pRO107 and pRO108 were transiently co-expressed in CHO-L761h cells (Cockett et al., 1990) at 200 mL scale. […] The binding of the antibody to the cells was measured using FITC labelled anti-human IgG and the bound fluorescence was detected in a FACScan analyser.

Assay [2] has as its target T1, A33 antigen. As to the kind of experiment: fluorescein-labelled antibody titrated on SW1222 cells, FACScan, Scatchard plot. As for the experimental part: The potency of hA33 (γ1) was compared to that of murine A33 by binding to cells of the human colerectal cancer cell line SW 1222. Fluorescently labelled conjugates of purified humanised and murine A33 were prepared to give approximately 1.5 molecules of fluorescein per antibody molecule. SW1222 cells (2.8×10⁵ per tube) were incubated with the fluorescent antibodies titrated in the range 3.57 µg/ml to 12 ng/ml in PBS with 5% foetal calf serum and 0.2% sodium azide on ice for 1.5 hours. After washing, antibody bound to the surface of the cells was detected by a FACscan (Becton Dickinson) as a fluorescent signal which was converted to numbers of antibody molecules bound per cell by calibration with fluorescent microbead standards.

Assay [3] deals with T1, A33 antigen. As to the kind of experiment: competition assays of Example 1 (FITC-labelled murine A33 on cells, FACScan); reference.

B1: chimeric A33(γ1) (antibody, V domains shown)
VH: EVKLVESGGGLVKPGGSLKLSCAASGFAFSTYDMSWVRQTPEKRLEWVATISSGGSYTYYLDSVKGRFTISRDSARNTLYLQMSSLRSEDTALYYCAPTTVVPFAYWGQGTLVTVSA
VL: DIVMTQSQKFMSTSVGDRVSITCKASQNVRTVVAWYQQKPGQSPKTLIYLASNRHTGVPDRFTGSGSGTDFTLTISNVQSEDLADYFCLQHWSYPLTFGSGTKLEVKR
B1: in the assay with A33 antigen [1], the binding result is listed as “binds”.

B2: murine monoclonal antibody A33 (antibody, V domains shown)
VH: EVKLVESGGGLVKPGGSLKLSCAASGFAFSTYDMSWVRQTPEKRLEWVATISSGGSYTYYLDSVKGRFTISRDSARNTLYLQMSSLRSEDTALYYCAPTTVVPFAYWGQGTLVTVSA
VL: DIVMTQSQKFMSTSVGDRVSITCKASQNVRTVVAWYQQKPGQSPKTLIYLASNRHTGVPDRFTGSGSGTDFTLTISNVQSEDLADYFCLQHWSYPLTFGSGTKLEVKR
modifications: FITC or fluorescein label on the antibody where it is used as labelled competitor or in the Scatchard assay (about 1.5 molecules of fluorescein per antibody molecule)
Turning to B2, in the assay with A33 antigen [2], the binding result is “binds”.

B3: mA33 Fab (Fab, V domains shown)
VH: EVKLVESGGGLVKPGGSLKLSCAASGFAFSTYDMSWVRQTPEKRLEWVATISSGGSYTYYLDSVKGRFTISRDSARNTLYLQMSSLRSEDTALYYCAPTTVVPFAYWGQGTLVTVSA
VL: DIVMTQSQKFMSTSVGDRVSITCKASQNVRTVVAWYQQKPGQSPKTLIYLASNRHTGVPDRFTGSGSGTDFTLTISNVQSEDLADYFCLQHWSYPLTFGSGTKLEVKR
On to B3, for which the binding result with A33 antigen [3] was “binds”.
